For data set [1] the following is noted: lyophilized from 9% sucrose, 1.7 mM EDTA, pH 5.2; 40° C. for six months; cited from earlier work.
The next data set has as its system rats. As to conditions: rat, in vivo; cited from earlier work.
The nature of data set [2]: thiol pKa (acid-dissociation constant). The data set is classed as physicochemical. As to conditions: verified experimentally, data not shown. The text has this: The human CF airway surface liquid is approximately 0.8 pH units more acidic than that of unaffected individuals due to the loss of bicarbonate-mediated buffering of proton secretion (Garland A L, Walton W G, Coakley R D, et al., 2013, Molecular basis for pH-dependent mucosal dehydration in cystic fibrosis airways. PNAS 110:15973-8; Shah V S, Meyerholz D K, Tang X X, et al., 2016, Airway acidification initiates host defense abnormalities in cystic fibrosis mice, Science 351:503-7). This has consequences for the clinical use of reducing agents to treat condensed, abnormal mucus. […] Cys thiol pKa values range from pH 8.5 (cysteamine) to pH 9.5 (NAC). In marked contrast to these classical thiols, the structurally-stabilized pKa of the Trx active site Cys32 is two to three logs lower (pH 6.1-6.3), allowing high activity even at acidic CF airway pH (FIG. 2).

Data set [3] relates to IL-6 and TNF-alpha in HBE-ALI from healthy and CF donors. Kind of data set: inflammatory cytokine release in HBE-ALI cultures (ELISA). The data set is classed as cell-based, human. To be noted: for effect on the inflammatory effect of saline: CF HBE-ALI. On the procedure:
Nasal airway epithelial cells from normal healthy volunteers or CF subjects were cultured in serum-free media at an air-liquid interface with mucociliary differentiation, based on methods adapted from the approach of Schlegel and colleagues (Suprynowicz, F. A., et al., Proc Natl Acad Sci USA, 2012, 109(49): p. 20035-40; Becker, M. N., et al., Am J Respir Crit Care Med, 2004, 169(5): p. 645-53). A number of unique CF and healthy control specimens were collected, expanded, and cryopreserved using this technique. 30 wells were cultured to differentiation at ALI for over 30 days from each of three unique normal or CF donors (homozygous for F508del). Triplicate cultures were exposed at the apical surface to PBS, native Trx, or ORP-100 and both apical and basolateral media samples were collected at 4 and 24 hours after challenge. Apical collection occurred by placing 200 uL of sterile PBS on the apical surface and recovering this after 15 min incubation. ELISA for IL-6 was performed for each sample in duplicate and others were measured using a multiplexed assay. Media was centrifuged to remove debris and stored at −80 C until ELISA analysis.
FIG. 8: Levels of IL-6 or TNFα induced after 24 hr in the basolateral ALI media of primary HBE cultures from nasal epithelia of non-CF (left series of bars) and CF donors (right series of bars). Delivery: apical-surface bolus application for 15 min of 200 uL volumes of control or test article solutions. PBS: 0.9% phosphate-buffered saline negative vehicle control (black bars); ORP100-1000: 1 mM ORP-100 in PBS (solid dark bars); […] uM ORP-100 in PBS (solid light bars); Trx-1000: 1 mM native thioredoxin-1 in PBS (dark hatched bars); Trx-100: 100 uM native thioredoxin-1 in PBS (light hatched bars). All concentrations reflect volumes delivered to the HBE apical surface.

The test system of a further data set is Sprague-Dawley rats. The experiment in a line: nebulized aerosol inhalation in rats, inflammatory potential and toxicity. To be noted: for neutrophil influx (sucrose/EDTA formulation effect): nebulized aerosol; for adverse test article effects (clinical observations, BALF chemistry, cell count, differential, lung cytokines, macroscopic and microscopic findings): target delivered doses 10 mg/kg and 40 mg/kg, aerosol, 1, 4 or 20 hours post exposure. It is filed as in vivo, rat. On the procedure: This example evaluated and compared the in vivo inflammatory potential among three forms of C35S monothiol Trx (oxidized ORP-100, reduced ORP-100, and reduced ORP100S) formulated in the sucrose/EDTA formulation composition described in PCT WO 2006/090127 and delivered to normal rats as nebulized aerosols at doses of […] and 40 mg/kg.
All three forms of ORP-100 were lyophilized following reduction with DTT and formulated in sucrose buffer (9% sucrose 1.17 mM EDTA pH 5.2). All test articles were evaluated at low (10 mg/kg) and high (40 mg/kg) target delivered doses. The test articles were administered to Charles River Sprague-Dawley rats via inhalation as an aerosol. The aerosol of each of the test articles was produced by a commercially available vibrating mesh nebulizer whose output was attached to a nose-only exposure system.
Target doses were achieved via modulation of the aerosol exposure time while maintaining the aerosol concentration constant. Animals in Low Dose groups received a single dose of test article during a 20 minute exposure to achieve a target delivered dose of 10 mg/kg and deposited dose of 1 mg/kg. Animals in High Dose groups received a single dose of test article during a 75 minute exposure to achieve a target delivered dose of 40 mg/kg and target deposited dose of 4 mg/kg.
Animals in each study group were evaluated for potential toxicity by measuring various parameters including: clinical signs, body weight, clinical pathology (BALF cell counts, LDH and albumin measurements), lung tissue cytokines, lung weights, gross pathology, and microscopic pathology of respiratory target tissues. Additionally, three animals in each Low Dose group had lung tissues collected for immunohistochemistry (Alizèe Pathology, Thurmont, M D). Three (3) animals in each Low Dose group were to be euthanized at 1 hour and 4 hours post exposure for blood and tissue collections. Four (4) animals in each High Dose group were euthanized at 4 and 20 hours post exposure for blood and tissue collections.

Data set [4] is described as follows: stability analysis, lyophilized vs solution (DTNB and SEC-HPLC). It is filed as physicochemical. To be noted: lyophilized form, six months at 40° C. As to the method:
Prior work, e.g. WO 2006/090127, teaches compositions for maintenance of thioredoxin in the reduced state. Significant experimentation was required to derive compositions able to keep thioredoxin reduced during storage, and these compositions were complex and required saccharide derivatives and EDTA as excipients. […] ORP-100 and ORP100S proteins were reduced with 100 mM DTT and exchanged over a NAP-5 column into volatile 20 mM ammonium acetate buffer at pH 5.5 to remove residual reductant. Half of the material was frozen at −80° C. then lyophilized while the remainder was kept in solution at either 5° C. or 40° C. for various time points (“PH5.5”). Lyophilized protein was reconstituted back into 20 mM ammonium acetate pH 5.5 immediately prior to evaluation at each time point (“Lyophilized”). Stability was assessed by measuring both free SH groups (DTNB chromogenic assay) and the percent monomers (SEC-HPLC).
For FIG. 3: PH5.5: ORP-100 or ORP100S protein maintained in liquid formulation of 20 mM ammonium acetate, pH 5.5 for 0, 3, 7, 14, 21, 28, 90, or 180 days. Lyophilized: ORP-100 or ORP100S protein stored in the lyophilized form at 5° C. or 40° C. for the 0, 3, 7, 14, 21, 28, 90, or 180 days and assayed following reconstitution in 20 mM ammonium acetate, pH 5.5. Percent free sulfhydryl (reduction state) at 5° C. Second panel: Percent monomer determined by SEC assay at 5° C. Third panel: Percent free sulfhydryl at 40° C. Fourth panel: Percent monomer determined by SEC assay at 40° C.

These results are taken from patent publication US20230071765A1, “COMPOSITIONS HAVING THIOREDOXIN ACTIVITY AND RELATED METHODS” (ORPRO THERAPEUTICS, INC., priority 2020, published 2023).

B1: thioredoxin: native human thioredoxin-1, 12 kDa redox protein with Cys-Gly-Pro-Cys active site (protein)
chain: VKQIESKTAFQEALDAAGDKLVVVDFSATWCGPCKMIKPFFHSLSEKYSNVIFLEVDVDDCQDVASECEVKCMPTFQFFKKGQKVGEFSGANKEKLEATINELV
On to B1, for which the “retention of starting activity” value in data set [1] is “almost complete retention of starting activity”. The “neutrophil influx and inflammatory cytokine release” value with rats is “high levels of neutrophil influx and inflammatory cytokine release”.

B2: oxidized thioredoxin: oxidized thioredoxin inactive protein control of Rancourt et al. 2007 (protein, UniProt P10599 2-105, looked up)
Thioredoxin: VKQIESKTAFQEALDAAGDKLVVVDFSATWCGPCKMIKPFFHSLSEKYSNVIFLEVDVDDCQDVASECEVKCMPTFQFFKKGQKVGEFSGANKEKLEATINELV
modifications: oxidized
As to B2, in the data set with rats, the “BALF cell count and cytokine results” value was “identical BALF cell count and cytokine results as normal saline alone”.

B3: ORP-100: thioredoxin protein having a monothiol active site in which the cysteine at position 35 has been replaced with serine (protein, UniProt P10599 2-105, looked up, variant C35S)
Thioredoxin: VKQIESKTAFQEALDAAGDKLVVVDFSATWCGPSKMIKPFFHSLSEKYSNVIFLEVDVDDCQDVASECEVKCMPTFQFFKKGQKVGEFSGANKEKLEATINELV
Regarding B3, in data set [2], the “pKa compared to native Trx” value is reported as “same pKa as native Trx”. In data set [3], the “effect on the inflammatory effect of saline” value is “abrogated the inflammatory effect of saline”. Besides, in data set [3] (concentrations above 100 uM, in normal (isotonic) PBS), the “anti-inflammatory effect vs. PBS vehicle alone” value is reported as “significant anti-inflammatory effect”. The “induction of IL-6 and TNF-alpha” value in data set [3] (reduced form, in PBS, apical application) is recorded as “non-inflammatory”. Further, the “differences in BALF LDH, albumin, cell counts, differential counts and lung tissue cytokines vs. oxidized ORP-100 control groups” value with Sprague-Dawley rats (low and high dose aerosol) is listed as “unremarkable”. For the same molecule, in the data set on Sprague-Dawley rats, the “neutrophil influx (sucrose/EDTA formulation effect)” value is “partially able to mitigate the formulation effect”; the “adverse test article effects (clinical observations, BALF chemistry, cell count, differential, lung cytokines, macroscopic and microscopic findings)” value is reported as “no evidence of adverse test article effects”. Moreover, the “storage stability (free SH, percent monomer)” value in data set [4] is “excellent storage stability”.

B4: oxidized ORP-100: oxidized form of ORP-100, control lacking thioredoxin activity (protein, UniProt P10599 2-105, looked up, variant C35S)
Thioredoxin: VKQIESKTAFQEALDAAGDKLVVVDFSATWCGPSKMIKPFFHSLSEKYSNVIFLEVDVDDCQDVASECEVKCMPTFQFFKKGQKVGEFSGANKEKLEATINELV
modifications: oxidized
Turning to B4, the “effect on the inflammatory effect of saline” value in data set [3] is given as “not”. Besides, in the data set on Sprague-Dawley rats, the “neutrophil influx (sucrose/EDTA formulation effect)” value was “induced”; the “adverse test article effects (clinical observations, BALF chemistry, cell count, differential, lung cytokines, macroscopic and microscopic findings)” value is recorded as “no evidence of adverse test article effects”.
